# Experimental data from patent US20230279119A1 (published 2023).
# B1: C6D4 scFv (scFv, V domains shown)
# VH: QIQLVQSGPELKKPGETVKISCKASGYTFTDYSMHWVKQAPGKGLKWVARINTETGEPTFADDFRGRFAVSLETSASTAYLQINNLKNEDTATYFCAIFYYGRDSWGQGTTLTVSS
# VL: DIVMTQSPSSLAVSAGEKVTMSCKSSQSLLNSRTRKNYLAWYQQKPGQSPRLLIYWASTRESGVPDRFTGSGSGTDFTLTISSVQAEDLAVYYCKQSYNLLSFGAGTKLELK
# notes: not shown: The scFv linker, the domain order, and the yeast-display partner and tags (vector pYD4)
# B2: HuC6D4F12 scFv (scFv, V domains shown)
# VH: QIQLVQSGAEVKKPGASVKISCKASGYTFTKYSMHWVRQAPGQGLEWVARINTETGEPTFADDFRGRFTVTLDTSTSTAYLEIRSLRSDDTAVYFCAIFYYGRDTWGQGTTLTVSS
# VL: EIVMTQSPATLSVSPGERVTMSCKSSQSLLHSRSRKNYLAWYQQKPGQAPRLLIYWASTRESGVPARFSGSGSGTEFTLTISSVQSEDFAVYYCKQSYNLLSFGQGTVLEIK
# notes: as for B1
# Molecular target: T1, recombinant αvβ8 ectodomain (UniProt P06756 31-992; P26012 43-684, limits assumed)
# T1 construct: extracellular domain; the ELISA and TMLC assays say only 'recombinant αvβ8'; also called immobilized αvβ8; integrin αvβ8
# Assay: scFv KD; method not stated (yeast-displayed scFv library was sorted with recombinant αvβ8 ectodomain)
# T1 sequence (P06756 31-992 limits assumed, chain 1 of 2): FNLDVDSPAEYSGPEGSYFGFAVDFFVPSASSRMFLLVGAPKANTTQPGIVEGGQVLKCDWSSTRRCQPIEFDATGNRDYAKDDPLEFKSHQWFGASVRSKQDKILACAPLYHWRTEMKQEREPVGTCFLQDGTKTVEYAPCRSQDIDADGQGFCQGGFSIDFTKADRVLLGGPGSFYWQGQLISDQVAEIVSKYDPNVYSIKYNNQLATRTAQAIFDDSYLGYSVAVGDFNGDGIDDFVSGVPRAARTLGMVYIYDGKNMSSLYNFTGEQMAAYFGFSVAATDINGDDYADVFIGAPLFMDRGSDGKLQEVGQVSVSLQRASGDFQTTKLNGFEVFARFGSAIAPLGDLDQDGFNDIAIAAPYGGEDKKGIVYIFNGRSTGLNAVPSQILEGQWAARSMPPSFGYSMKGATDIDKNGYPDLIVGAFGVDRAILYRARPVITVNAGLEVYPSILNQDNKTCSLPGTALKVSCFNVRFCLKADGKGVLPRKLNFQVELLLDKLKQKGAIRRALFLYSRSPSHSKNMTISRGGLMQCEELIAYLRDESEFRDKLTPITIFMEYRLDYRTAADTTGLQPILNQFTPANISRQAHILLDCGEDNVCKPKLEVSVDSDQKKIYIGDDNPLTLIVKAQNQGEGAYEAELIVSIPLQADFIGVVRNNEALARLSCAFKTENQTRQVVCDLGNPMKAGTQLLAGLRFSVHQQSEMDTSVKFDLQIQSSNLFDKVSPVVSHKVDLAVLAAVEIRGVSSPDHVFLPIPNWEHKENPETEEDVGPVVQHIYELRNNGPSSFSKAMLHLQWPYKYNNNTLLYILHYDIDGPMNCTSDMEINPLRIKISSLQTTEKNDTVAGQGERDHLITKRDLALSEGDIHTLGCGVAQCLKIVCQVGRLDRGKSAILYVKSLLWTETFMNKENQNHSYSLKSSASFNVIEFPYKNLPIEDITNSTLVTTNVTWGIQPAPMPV
# T1 sequence (P26012 43-684 limits assumed, chain 2 of 2): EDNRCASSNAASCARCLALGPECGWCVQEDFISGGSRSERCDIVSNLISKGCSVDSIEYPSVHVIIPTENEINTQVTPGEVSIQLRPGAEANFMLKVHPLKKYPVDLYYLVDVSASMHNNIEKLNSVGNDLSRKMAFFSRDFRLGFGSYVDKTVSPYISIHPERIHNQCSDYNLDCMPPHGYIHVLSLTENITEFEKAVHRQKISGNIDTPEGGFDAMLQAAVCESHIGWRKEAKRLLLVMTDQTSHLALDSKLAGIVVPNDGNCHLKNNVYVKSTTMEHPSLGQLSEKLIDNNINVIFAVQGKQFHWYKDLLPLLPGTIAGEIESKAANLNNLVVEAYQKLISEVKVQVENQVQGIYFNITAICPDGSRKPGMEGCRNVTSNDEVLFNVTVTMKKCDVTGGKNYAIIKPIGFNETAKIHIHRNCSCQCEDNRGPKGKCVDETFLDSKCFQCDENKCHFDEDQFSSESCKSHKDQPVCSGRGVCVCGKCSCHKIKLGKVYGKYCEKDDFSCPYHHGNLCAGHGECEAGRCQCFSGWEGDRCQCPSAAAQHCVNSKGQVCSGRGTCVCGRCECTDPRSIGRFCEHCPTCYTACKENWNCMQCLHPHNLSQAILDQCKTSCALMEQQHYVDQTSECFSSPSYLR
binder,measurement,value
B1,Kd,7.25 nM
B2,Kd,0.39 nM
